Experimental data as given in a protein production outcome set (Wang et al. 2014).

Experiment: label from the status in PepcDB records

Row | Sequence | protein production
1 | MTEKNTLKKSATLAAAGLVVAGALLAGCGESKATPMDDAYAGNSGETEKSQEEQSQSQSNGSDSSDGSDSGSSHNDPSTTTSDKKDTGNYKDGNYSINGQYGPVGEDSIDVHLTIKDGNVETVKIIGHPFTTISKNHQDDFAKAINGVVDGKPLKGLKVDKVAGASWTSDAFNKALEVARQEASIQE | failed
2 | MYKNILILGRGIGQVMFQNNALSGGLMLLGIAFNSWQLAVLSVLGTVVSTLTASLSGYDKEDIRNGLYGFNGTLVGIAIGVFMEINVTSILLLISGSAFSTWVARCFRYQNRVSGLTAPFIFVVWLLLVGCHYLYPSLLLSSSLEKPELTMDIFRSFCLNIGQVMFQGNILSGLFFLLGILINSRMNALYTLTGAILPLFMILYPHTDLAAWNLGLLGYNGVLCAIALGDKTGIGVVKAIFSIILSIVLQLTGMHMGIVTLTAPFVFSVWITGGLFSVFRSKS | failed
3 | MAASFAFLRDIRPYKTSWRIQVKVFHSWRQYTSMTGETLELVLVDAHGVKIHASVKKDLVSNFVNNLLLNEWRFIETFALNHASGQFRPTGHLYKMTFVTGTQCILLDVMGQVVDIGELETLEAKNKPTIKLDFELRDDTDERMSCTLWGAFAQSVFSACEFADGQMVICVLRFAKIKSYKGVRSFSNSFYASQVHINPDFPEVQAFVSRVPKFHMVTVKQDDDCKQYERKSIRDFLHSMEVRVVCTIYALDTDWSWYYFSCRNCNKKVTHIHAGVNTTSLKSSKPRFWCDVCKNGVTNVQAK | failed
4 | MKYQNFIMRILCLLLILAAVVGYNSMQKKDTQAQESQEITALTKRVEKLEEQNTEILSALEEAAKNQEAAIAQAQRDAKDKDDAAKEDAEGADAADTEESDDSENVYKDGTYTGSAQGFGGAITVQVTLANDEITDIQVTSAPGEDSAYLSQGEGVISSIISAQSTDVDTVSGATFSSTGIINAVVDALGKAEN | failed
5 | MWAHCSAIARTMVYPSFFCSGDWLKVAAENLCPGDEAYILLAKDADDIRGVLPLVRKRNALGGTDLHYLGSDFYPDPLGLICSPADRADCAAALRNHLLNAPDWDRLILDFLLEDEPADWTLPGKPVSVAPFKVLPRDFSELLGEFKKKKRYNLRAMVKKLLDAGGELAASSGPESNIAYLDALFFLHEKRASERSLDSSFTGPRVQSLHRALVAASDNVRFFGLRLNGQMIAVIYGFEFCNRFFYYQVAHDPDHGHLSPGTVLLYLVIEACCVNGLTEFNFLQGDETYKGIWTNDSRILYRCVLNRSTWRSRVFSAVEESRGYVKRAMGLMSRGN | failed
6 | MVRLLHVSFVSHGAAWLPIHSCTGSHGQCERRAAGGPEAWATTPSLAAMPIDTRARQPSCDNRVMNDAALAPDVSAALERGLQAQSLDTAFAAPLLRYLALLVRWNKTYNLTAVRDPRAMVTRHLLDSLAMQPYIASGMLADLGTGPGLPGIPLAITRPQLQVTLVESNGKKARFMREALRHLELRNARVAESRAEALDEPTAYDHLTARALDTLAGIIAVGGHLLRPGGSLLAMKGIYPHEEIAALPEGWTMSEVHQLQVPGLDGERHLVVVRKA | failed
7 | MAVSSLGNIYCAAAGFHSVPIVICQTSCVRWRGSGRTSGAICCAECVARGSDVRAYFRGQDKDAVGKDAVAPGVGCVQPVAIGIHAGLYRWRDRLRIGIDGDHARCRPDVAHGELDVGASAVPRRGSHGHRGRARAGGLVQELSVREQPPVDHRHLRAVLRLAGAAALLTQGRNAQGAVRELVCARYRHAVSGPRQPQGRGTGATSGGCVVAPGQTVVSVSRRHPQPHRRIIAIQGRATAGCYRCWRAGGSGGAGRLRQGVAGRWPVQGAPRHHPRADRYADRCDRAGCAGSPTIDRAGTQGRGCNASPQDLSSTLMDFVVPHDHPCLPGHFPGRPVVPGVVVLDHVLQAVEALHGPRAAARLPQVKFVQPLLPGQTASVTLEGDGPRWRFRVQRADVVLVSGELVAEAGT | failed
8 | MMTKKERIAIQRSMAEEALGKLKAIRQLCGAEDSSDSSDMQEVEIWTNRIKELEDWLWGESPIA | not failed
9 | MKFLGRGRELARFKEELDAARPSLVILYGRRRVGKSRFLRELGKSRKEIYFQATRVSSLLNLEQFKIEVANILGALPVLESLPSWEGVFYYIAEHTRNNPGLLITIDEFPYLLDGDPALPSILQKFWDSGAPADGGLKLILCGSSISQMQDLLAERNPLYGRQTLSLDMKQLPLTDVARFFPKYDAEAIISTYAIFGGIPHYLQLFNPDVPLKDNVVRLLLTETGTLVDEPNTLLQTELHEPGFYSSVLAAIADGCNTTSEIASRLGVKVEKITSYAAKLVALHLISNTKSLDVDEKVRNRRFRLDDSLISFWHRFVRPSLTAISGGFGEEVYRQVVAPGFSEYMGIAFEAIALEYARIHIQEKLGLPAKELGQIWGHSDFDIDVAGRLLNGEYFYGDCKWTNADIDMGHLRQLRERSERTRYGRGTAGKHFLLFSKAGFSTDLIVFAKDETRRVHLLTPNDLVRPNQ | failed
10 | MSGEDEQQEQTIAEDLVVTKYKMGGDIANRVLRSLVEASSSGVSVLSLCEKGDAMIMEETGKIFKKEKEMKKGIAFPTSISVNNCVCHFSPLKSDQDYILKEGDLVKIDLGVHVDGFIANVAHTFVVDVAQGTQVTGRKADVIKAAHLCAEAALRLVKPGNQNTQVTEAWNKVAHSFNCTPIEGMLSHQLKQHVIDGEKTIIQNPTDQQKKDHEKAEFEVHEVYAVDVLVSSGEGKAKDAGQRTTIYKRDPSKQYGLKMKTSRAFFSEVERRFDAMPFTLRAFEDEKKARMGVVECAKHELLQPFNVLYEKEGEFVAQFKFTVLLMPNGPMRITSGPFEPDLYKSEMEVQDAELKALLQSSASRKTQKKKKKKASKTAENATSGETLEENEAGD | failed
11 | MAKGDVITLNFETFVDSDTQVKVTRLTPTDVICHRNYFYQKCFTQDGKKLLFAGDFDGNRNYYLLNLETQQAVQLTEGKGDNTFGGFISTDERAFFYVKNELNLMKVDLETLEEQVIYTVDEEWKGYGTWVANSDCTKLVGIEILKRDWQPLTSWEKFAEFYHTNPTCRLIKVDIETGELEVIHQDTAWLGHPIYRPFDDSTVGFCHEGPHDLVDARMWLVNEDGSNVRKIKEHAEGESCTHEFWIPDGSAMAYVSYFKGQTDRVIYKANPETLENEEVMVMPPCSHLMSNFDGSLMVGDGCDAPVDVADADSYNIENDPFLYVLNTKAKSAQKLCKHSTSWDVLDGDRQITHPHPSFTPNDDGVLFTSDFEGVPAIYIADVPESYKHLEHHHHHH | not failed
12 | MSAIQNGTDEVRVIDTGAPPTRFARGWHCLGLASEFSDGKPHQISAFGTELVVFAGEDGKLNVLNAFCPHMGGNLADGTVKGDTIACPFHDWRWRGDGKCADIPYARRVPPLARTKSWLTLERNGQLFVWNDPQNRKPPAEVTIPEISVFGDEGWTDWVWNKLEVRGSHCREIVDNVVDMAHFFYVHYGMPTYFKNVFEGHVATQVMRSKPRADAVDVKLGTNYDTESASDASYFGPSYMIDKLWTEGDDSGEPNIMLINCHYPISADSFMLQYGVMVKKPEGVPDAVANGIAAQVAAGVAIGFEQDVEIWKKKSSIDNPLLSEEDGPVYQLRRWYEQFYVDVEDINPEMTNRFEFEIDTDRALKNWQVEVDANLAAGRSAIPSPVS | not failed
13 | MSGSGKTITQMKSTAILAPVIAVILILSACGKPMDAQALVAEAKQYQQQGNDKAAIIQLKNALQQSPNDPEIRYLLGTLYNREGDIQSAEKELNKALDLGMDPVKVLPGLSRAWLGMGKFQQVLDETGKLSDKGNFAELLALRGNASLALGKFEEAKVLFEQALQDKPGFSDALTGLARYSLARNDIESAMNFSEEAVKLNPENSDAVLFRGDLLRAQNKIDEALADYDKAIKLNPESEAAYINRATISISTKKFEAAQADLDAVRKIAPGSLLAAYTQALLDFSQGKHAVALETLQRILSSAPGHLPSVLLAGATQFALGSFPQAGQYVEQYLKAIPNNLYAIKLMASIQLKNNQVKQAITTLTPALKSVQQDPQLFALAGEAYMRSKDFTKASEYFEKAGELAPDNASLYTALAMSKMGQGDSKSAIADLEQAAQLDDQSGRAGVMLVLTHLQLREFDKALKAVESQLAEQPDNPLLHNLKGGIYLGKKDLAKARSSFNQALSIQSDYFPAISNLARIDMQENHPEAAQQRFEDVLKRDKKNVQAMNALAGIALARGNKEEATGWLEKASRENPDELQPALQLGAHYLAVNDPGKSLALAKKLQGIHPDNLSIVELLARSYLATGDKDAALENFQKLAARLPDSAPAQLQLAQIYSSMQNNKAAAGSLKKALTIKPDLWEAKLMQAQLAVAADRVEDAFNISHDLQKQHEKLPVGFELEGDLQMRQKNAAAAATAYEKALSRQKNSQLLIKLHTALSQSGKEKQADQRLNQWLKENPTDAVTRTYLAGVYLASKKYDPAIKEYQTILKQHPDHAATLNNLAWVYQQKKDPVALEYAEKAYKQAPDSPAILDTLGWILIEKGDAERGTSLLQKAVTAVPEAAEIRYHYAVGLFKSGNKAEARQELEKLLGGDKPFPQRDDAKKLLESL | failed
14 | FLTEFINYIKKSKVVLLEDLAFQMGLRTQDAINRIQDLLTEGTLTGVIDDRGKFIYITP | not failed
15 | MQPLVSTVLVPSQGIPLCCNEICLKSLQKEVAMPLKDLLIALVVIVAWGVNFVVIKVGLDGLPPMLLGALRFLLVAFPAILLVRRPKLPWRWLIAYGATISLGQFAFLFQAMYSGMPPGLASLILQSQAFFTLGFAALFLGERLRLASVLGLLVAAGGLALIGSEDGGHVPMLALVLTLCGGAMWGLGNIITRRFGSVDLVALVIWGGLIPPLPFLALSWWLEGPERIGHALANISWSSVLALAYLAFVATMLGYSLWSKLLSRHPAGKVAPFSLLVPVIGLSSSALLLGERLTATQGWGALLVMAGLLVNVFGARIGQRLRAANA | failed
16 | MRVMAFVQARMGSTRLPGKSLMPVWNGMGVLEMTLRRALRARTLSGVVLCTSTDPACDALETLASGLGVQAFRGPEDDVLTRYALATERFEPDAVVRICADSPLVCPEGIDALVAFFRDEGLDYAAHAMDGTGLPDGLGCEVFTAAALAQAHAEATAPEDREHVSLFIRHRPERFRQATLAADAALRAPGVSLDVDTQDDLDALRRFIMALPPSEGPFWSADAIAPLARGLHTPPQGTSMDIASDDYHDFFIRDGKLIGEFEQMYRKSRHAPWHQDEACDKWFNKVSAALVGHALDDPSVRTVFEVGSGLGYFLSQFAGEGRTLTGTDVSATAVEKARALFPGISFEVDDIRFEGRRGPYDLCLMQAVCWCIFPHMDDVVRNVTATVRPGGYLFLGECFQPLDGPFAGKDVIPTPDALIGHFSHAFDTVADVRVTRGEMGGGPIIYWLGRRRGLEHHHHHH | not failed
17 | MTTPSRRILILVGHPDPAPERFCRALAEAYAQGAMEGGHEVRRADIGSMDIALLESQAAFQVDDAPQSIRDLRADIVWAEHLVLVFPLWLGGAPAKLKAALEQVCRGGFGFEVGPRGWSSKLAGRSARMVLTMGMPSAIFRLVFGSHGLKAVTQGIFMLAGVKPRRASIIGGVEAIGAGGRSRWLKRMGHLGEAAR | failed
18 | NPHMWWLQDADPENNSRQASPSQESINQLVYMGFDTVVAEAALRVFGGNVQLAAQTLAHHGGSLPPDLQF | not failed
19 | MDSNTFVSTNIKKERNVDSVLSKGKPVSILLMGTDTGELGRNWVGRTDSMILVIINPKTKKTLLMSIPRDSMVSIPGYEYTFPQKINAAYEYPANGKGHPETSIKTVEKWLNVPIDFYGIVNMEALEQITNKAGGISVKSPLTFTFSEDTAHDYGNNLYTFTKGSTKYKYYKNGSTLTKTSNIMNGAAALAFTRMRYNDPLGDYGRTLRQRLVFEAIAKKATVLIPQIVNKKFLNSISKQGKTDLTFNDMVTLASNYRKALKNIKSDSVQGTDYEYSGISYQVVASKEKQRVTNKIRKFLGLKKAKSGPLYASKVTNGVVILEHHHHHH | failed
20 | MSRPPTTPSAPQTADLVRPARRGDLDGLLALARAADAGMTNLPADRAALDDRLAASEQALIDPETRNAGAAVYLVLERQGRVIGAACVFARIGVAQPFYSYRVTRLTQLSPDLGKRVEMSVLTLVNDLTDQAEVGGLFVAPDAR | failed
